Measured values from patent publication US20100016234A1, “SIGNAL PEPTIDES, NUCLEIC ACID MOLECULES AND METHODS FOR TREATMENT OF CARIES” (The Governing Council of the University of Toronto, published 2010).

T1: S. mutans ComD protein (histidine kinase) (Streptococcus mutans)
T1 chain: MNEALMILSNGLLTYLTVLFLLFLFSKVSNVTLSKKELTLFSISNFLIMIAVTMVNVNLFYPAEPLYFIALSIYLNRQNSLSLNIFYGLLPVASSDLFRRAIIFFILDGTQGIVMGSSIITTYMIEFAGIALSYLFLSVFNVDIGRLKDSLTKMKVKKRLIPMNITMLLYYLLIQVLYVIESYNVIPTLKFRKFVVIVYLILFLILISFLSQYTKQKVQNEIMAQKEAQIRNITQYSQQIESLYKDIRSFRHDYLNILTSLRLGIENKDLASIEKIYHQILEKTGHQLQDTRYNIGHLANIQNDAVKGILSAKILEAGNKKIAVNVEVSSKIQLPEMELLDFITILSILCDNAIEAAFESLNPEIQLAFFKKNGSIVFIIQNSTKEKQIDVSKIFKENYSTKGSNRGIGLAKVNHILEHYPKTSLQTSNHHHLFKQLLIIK


Molecular target: T1, S. mutans ComD protein (histidine …)
Assay: cell-based or functional assay

Row | Binder | Biofilm formation (SDM-glucose), S. mutans UA159, 5 µg/ml peptide
1 | SGSLSTFFRLFNASFTQALGK [Peptide analog E2] | 38.9 % biomass (reduction)
2 | SGSLSTFFRLFNRSFTQALGV [Peptide analog F2] | 38.7 % biomass (reduction)
3 | SGSLSTFFRLFNRSFTQALK [Peptide analog F1] | 36.7 % biomass (reduction)
4 | SGSLSTFFRLFNRSFTQAGK [Peptide analog G1] | 24.4 % biomass (reduction)
5 | SGSLSTFFRLFNRSFTQALGA [Peptide analog G2] | 35.6 % biomass (reduction)
6 | SGTLSTFFRLFNRSFTQA [Peptide analog B3 (JH1005 CSP sequence)] | 34.4 % biomass (reduction)

Molecular target: T1, S. mutans ComD protein (histidine …)
Assay: cell-based or functional assay
Remark: another data set of the same source

Row | Binder | Transformation efficiency (vs no CSP), S. mutans wild-type UA159, 5 µg/ml peptide
7 | SGSSTFFRLFNRSFTQALGK [Peptide analog D1] | 275 fold increase (vs no CSP)
8 | SGSLSTFFALFNRSFTQALGK [Peptide analog C2] | 32 fold increase (vs no CSP)
9 | SGSLTFFRLFNRSFTQALGK [Peptide analog E1] | 791 fold increase (vs no CSP)
10 | SGSLSTFFRLFNRSFTALGK [Peptide analog A2] | 125 fold increase (vs no CSP)
11 | SGSLSTFFRLFNRSFTQALGK [S. mutans competence signal peptide (CSP), mature wild-type CSP sequence] | 1550 fold increase (vs no CSP)
12 | SGSLSTFFVLFNRSFTQALGK [Peptide analog B2] | 4 fold increase (vs no CSP)
13 | SGSLSTFFRLFNASFTQALGK [Peptide analog E2] | 252 fold increase (vs no CSP)
14 | SGSLSTFFRLFNRSFTQALGV [Peptide analog F2] | 543 fold increase (vs no CSP)
15 | SGSLSTFFRLFNRSFTQLGK [Peptide analog H1] | 18 fold decrease (vs no CSP)
16 | SGSLSTFFRLFNRSFTQALK [Peptide analog F1] | 541 fold increase (vs no CSP)
17 | SGSLSTFFRLFNVSFTQALGK [Peptide analog D2] | 99 fold increase (vs no CSP)
18 | SGSLSTFFRLFNRSFTQAGK [Peptide analog G1] | 848 fold increase (vs no CSP)
19 | SGSLSTFFRLFNRSFTQALGA [Peptide analog G2] | 56 fold increase (vs no CSP)
20 | SGTLSTFFRLFNRSFTQA [Peptide analog B3 (JH1005 CSP sequence)] | 195 fold increase (vs no CSP)
